The record followed here is paper PMC3502752.

pKd: −log10 of the molar value.

What all share (conditions): ELISA: 20 mM Tris-HCl pH 7.5, 100 mM NaCl, room temperature, 1 h (washes with 0.02% Tween-20); SPR conditions not in the material
The subject of data set [1] is BV04-01 scFv (SCA04-01) (mouse (lupus-prone)). Nature of the data set: ELISA.
Data set [2] concerns BV04-01 scFv VH A23P (mouse (lupus-prone)). Nature of the data set: ELISA.
Data set [3] has as its system MRL-4 scFv (mouse). Nature of the data set: ELISA.
Data set [4] has as its system MRL-4 scFv VH P23A (mouse). Nature of the data set: ELISA.
The test system of data set [5] is BV04-01 scFv (SCA04-01) (mouse (lupus-prone)). Nature of the data set: SPR.
In data set [6] the test system is BV04-01 scFv VH A23P (mouse (lupus-prone)). Nature of the data set: SPR.
Data set [7] concerns MRL-4 scFv (mouse). The data set is described as follows: SPR.
Data set [8] deals with MRL-4 scFv VH P23A (mouse). The data set is described as follows: SPR.

In the case of 254-bp PCR fragment (ELISA), the binding signal in data set [1] and in data set [3] was 100% each time. Besides, the binding signal (% of BV04-01 wild type) in data set [2] amounted to 1.2. This substance showed a binding signal (% of MRL-4 wild type) in data set [4] of 4.6.

For “double-stranded DNA fragments (SPR ligand)”, the pKd in data set [5] is 8.74; in data set [6], 6.54; in data set [7], 7.77; in data set [8] it was 5.07.
